From the supplement of paper PMC9732359
± gives the uncertainty stated by the source.

Assay: protein stability index of a GFP-peptide fusion (yeast GPS) (PSI 1-4); higher = more stable; sorted into four equal gates, so the index is relative within each strain
Method in brief: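 Each library plasmid carries Cherry plus GFP with a tiled 17-residue yeast protein peptide fused downstream, and the pooled library was carried in yeast. Mid-log cultures in leucine-free medium were sorted into four equal gates by GFP/Cherry ratio. Reads from Illumina sequencing of PCR-amplified plasmids from each gate were assigned to strains by barcodes. Per peptide, the protein stability index was computed as the summed products of gate read frequency and gate number.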

| Sequence | protein stability index (doa10∆) | protein stability index (pdr5∆) | protein stability index (san1∆) | protein stability index (ubr1∆) |
| --- | --- | --- | --- | --- |
| DAISQVINIAKAHPNFP [FAS1] | 1.41 ± 0.076 | 2.65 ± 0.095 | 2.03 ± 0.26 | 2.91 ± 0.082 |
| VMEYDVKFYEIFNFDQL [SRB8] | 1.97 ± 0.11 | 1.9 ± 0.12 | 1.66 ± 0.13 | 1.74 ± 0.1 |
| FDTDWNPHQDLQAQDRA [SNF2] | 3.07 ± 0.068 | 3.16 ± 0.056 | 2.94 ± 0.037 | 3.35 ± 0.05 |
| TNQLKSLKGLQSKLKDV [RPN8] |  | 1.59 ± 0.23 | 2.62 ± 0.19 | 1.36 ± 0.13 |
| WQEYSSVFKGGMQNLIK [SRP14] | 3.1 ± 0.12 | 3.44 ± 0.13 | 2.92 ± 0.14 | 3.16 ± 0.17 |
| NNLEKYPFRYKTWLRNQ [RTT102] | 3.37 ± 0.077 | 3.39 ± 0.053 | 3.32 ± 0.061 | 3.38 ± 0.067 |
| EAGEVKDDGAFVKFLSK [RPL10] | 3.28 ± 0.087 | 3.22 ± 0.078 | 3.35 ± 0.07 | 3.61 ± 0.065 |
| LKENTYVMERPKNVPTS [YDL116W/NUP84] | 1.81 ± 0.1 | 2.13 ± 0.12 | 2.79 ± 0.15 | 2.96 ± 0.093 |
| GGLNDPRLGSIDRNLKC [RPO21] | 3.35 ± 0.17 | 3.28 ± 0.11 | 3.32 ± 0.094 | 3.33 ± 0.086 |
| DLQNLNLNTDKLKNNAS [YJL039C/NUP192] | 2.54 ± 0.11 | 2.65 ± 0.061 | 2.94 ± 0.086 | 2.5 ± 0.057 |
| VEDYLSSVTSDSMKYTI [RPC82] | 3.45 ± 0.22 | 3.03 ± 0.083 | 3.05 ± 0.14 | 3.04 ± 0.093 |
| KARFVSKLAEEKIRAAG [RPL28] | 2.508 ± 0.025 | 2.66 ± 0.027 | 2.6 ± 0.028 | 2.793 ± 0.024 |
| MVNVPKTRKTYCKGKTC [RPL42A] | 1.42 ± 0.15 | 1.41 ± 0.1 | 1.99 ± 0.25 | 1.35 ± 0.075 |
| AGVSHGTLGEIFIRCNN [SMX3] | 3.57 ± 0.14 | 3.37 ± 0.096 | 2.91 ± 0.094 | 3.29 ± 0.08 |
| MDALYEKIWFAISKENL [SIR3] | 2.21 ± 0.06 | 1.95 ± 0.052 | 1.51 ± 0.088 | 1.27 ± 0.047 |
| VHRITDEEASYKLGKVK [RPS4A] | 3.01 ± 0.087 | 3.13 ± 0.13 | 2.98 ± 0.12 | 3.07 ± 0.12 |
| RLAAPHHWLLDKLSGCY [RPS4A] | 2.31 ± 0.23 | 2.2 ± 0.1 | 2.26 ± 0.14 | 2.35 ± 0.15 |
| FDKLLNIPRRELKINLP [SRB4] | 2.57 ± 0.074 | 2.6 ± 0.053 | 2.74 ± 0.071 | 2.12 ± 0.061 |
| KLKEYLDLVARTATLSN [YDL116W/NUP84] | 2.63 ± 0.23 | 2.88 ± 0.16 | 2.99 ± 0.1 | 2.74 ± 0.15 |
| EDTELYQELIKNGALVS [YJL039C/NUP192] |  | 2.77 ± 0.087 | 3.21 ± 0.11 | 2.57 ± 0.069 |
| DHSMILPSGVLSRGDDE [SMC3] | 3.08 ± 0.094 | 2.51 ± 0.082 | 2.19 ± 0.12 | 2.39 ± 0.04 |
| QQQQQQHIYPSSTPGVA [GAL11] | 2.728 ± 0.022 | 2.78 ± 0.029 | 2.664 ± 0.023 | 2.664 ± 0.025 |
| SVKDYRPAEETEAQAEP [RPS3] | 2.76 ± 0.065 | 3.07 ± 0.068 | 3.11 ± 0.041 | 2.93 ± 0.043 |
| DAGSNQYYVTQHDKMVD [SWI1] | 3.04 ± 0.058 | 2.99 ± 0.046 | 2.95 ± 0.068 | 2.74 ± 0.045 |
| LRDREDWGQALRLLLLL [YJR042W/NUP85] | 2.83 ± 0.066 | 2.13 ± 0.067 | 2.2 ± 0.083 | 1.66 ± 0.044 |
| IDEVDSIATKRFDAQTG [RPT3] | 3.12 ± 0.12 | 3.18 ± 0.076 | 2.93 ± 0.075 | 3.38 ± 0.1 |

| Sequence | protein stability index (doa10∆) | protein stability index (pdr5∆) | protein stability index (san1∆) | protein stability index (ubr1∆) |
| --- | --- | --- | --- | --- |
| NDWKLETERLISQSQLG [SIN4] | 3.42 ± 0.096 | 3.11 ± 0.14 | 3.3 ± 0.068 | 3.53 ± 0.19 |
| ALQDKEITSVLSNLHES [SNF12] | 2.93 ± 0.083 | 3.43 ± 0.13 | 2.94 ± 0.064 | 3.13 ± 0.056 |
| PRMVRDVFRLARENAPS [RPT3] | 2.62 ± 0.17 | 2.88 ± 0.059 | 2.86 ± 0.16 | 2.89 ± 0.097 |
| FITTLLKSLYSFFNISP [SIN4] | 2.26 ± 0.042 | 1.5 ± 0.037 | 1.46 ± 0.057 | 1.53 ± 0.034 |
| IYYTPAFFHLFASLRVL [YJL039C/NUP192] | 1.73 ± 0.08 | 1.71 ± 0.081 | 1.43 ± 0.13 | 1.75 ± 0.083 |
| GASIIQVIFEIFEISLQ [YML103C/NUP188] | 1.53 ± 0.046 | 1.82 ± 0.044 | 2.1 ± 0.065 | 2.06 ± 0.043 |
| ALQQQQQQQQNQQQQNQ [SWI1] | 2.77 ± 0.062 | 2.97 ± 0.068 | 2.75 ± 0.047 | 2.78 ± 0.079 |
| KAGRAFHKYRLKRNSWP [RPL2A] | 2.87 ± 0.082 | 2.88 ± 0.063 | 2.13 ± 0.058 | 2.05 ± 0.064 |
| KGTGEESNDRINKIVEI [YGR119C/NUP57] | 3.66 ± 0.18 | 3.18 ± 0.16 | 2.93 ± 0.17 | 2.89 ± 0.15 |
| LPVASPFHSHLLVPASD [FAS1] | 1.61 ± 0.053 | 1.62 ± 0.062 | 1.98 ± 0.063 | 1.96 ± 0.044 |
| FQELDSKKQRNNGSKDH [RPN9] | 3.09 ± 0.17 | 2.64 ± 0.19 | 2.67 ± 0.15 | 2.37 ± 0.16 |
| NPIDIKRRFGELMDRTG [RPP1] | 3.08 ± 0.12 | 3.19 ± 0.18 | 2.26 ± 0.26 | 2.9 ± 0.059 |
| LSWCPSRFSPEKLAVSA [YGL100W/SEH1] | 2.48 ± 0.078 | 2.57 ± 0.11 | 2.81 ± 0.14 |  |
| KRVSGTSQHSDSLTQNN [YOR098C/NUP1] | 2.5 ± 0.088 | 2.71 ± 0.055 | 2.73 ± 0.072 | 2.68 ± 0.054 |
| FNRTKGKMVRAQDVALA [PRP8] | 1.86 ± 0.21 | 1.76 ± 0.13 |  | 1.06 ± 0.096 |
| CYQFAEYLFKPQLISDK [ARP7] | 2.38 ± 0.06 | 2.14 ± 0.049 | 2.2 ± 0.064 | 2.11 ± 0.04 |
| NSTTSGGLFGNKVGSTG [YGR119C/NUP57] | 3.17 ± 0.13 | 3.47 ± 0.19 | 3.21 ± 0.071 | 3.29 ± 0.17 |
| LSRGYTCPGLSLTDVAF [ECM29] | 3.24 ± 0.12 | 3.19 ± 0.084 | 2.29 ± 0.11 | 2.68 ± 0.12 |
| NKPIKRMLSSILDINVS [SWP82] | 2.52 ± 0.046 | 2.6 ± 0.041 | 2.48 ± 0.053 | 2.31 ± 0.027 |
| LVEEFMLLANISVARKI [DIS3] | 1.3 ± 0.062 | 1.84 ± 0.092 | 1.77 ± 0.16 | 2.18 ± 0.055 |
| ELSTDIILKTRQINKLI [SRB7] | 1.2 ± 0.13 | 1.19 ± 0.066 | 1.37 ± 0.23 | 1.2 ± 0.13 |
| THNSYEKACQVLKYMLL [RPN6] | 2.18 ± 0.076 | 2.44 ± 0.073 | 2.23 ± 0.087 | 3.26 ± 0.071 |
| SSAADITMESVHEWEVS [PRP8] | 3.28 ± 0.062 | 3.32 ± 0.055 | 3.31 ± 0.048 | 3.29 ± 0.046 |
| PPNNARRTYNTLEDKFL [ISW2] | 2.09 ± 0.04 | 2.02 ± 0.045 | 1.6 ± 0.11 | 1.95 ± 0.035 |
| FQMNCYAKEDAFSYPRM [RPN2] | 2.53 ± 0.12 | 2.52 ± 0.078 | 2.48 ± 0.077 | 2.61 ± 0.047 |
